T1: Smaug NTD (Drosophila melanogaster, UniProt Q23972 70-281)
T1 sequence: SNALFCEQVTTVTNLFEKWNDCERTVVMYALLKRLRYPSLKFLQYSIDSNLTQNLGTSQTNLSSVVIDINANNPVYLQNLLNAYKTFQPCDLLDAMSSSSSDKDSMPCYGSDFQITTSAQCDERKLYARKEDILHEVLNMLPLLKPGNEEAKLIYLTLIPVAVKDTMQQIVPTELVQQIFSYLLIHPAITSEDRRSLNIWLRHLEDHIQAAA

B1: Smaug NTD (aa 70-281, His-tag removed) (domain or fragment, Drosophila, UniProt Q23972 70-281, looked up)
chain: T1 sequence
B2: Smoothened 970-1003 synthetic peptide (wild-type) (peptide)
peptide: VPSYGEDELQQAMRLLNAASRQRTEAANEDFGGT
B3: Smaug 73-278Δ156-196 (Smaug part of the single-chain crystallisation construct) (domain or fragment, Drosophila, UniProt Q23972 73-278, looked up)
chain: LFCEQVTTVTNLFEKWNDCERTVVMYALLKRLRYPSLKFLQYSIDSNLTQNLGTSQTNLSSVVIDINANNPVYLQNLLNAYKTARKEDILHEVLNMLPLLKPGNEEAKLIYLTLIPVAVKDTMQQIVPTELVQQIFSYLLIHPAITSEDRRSLNIWLRHLEDHIQ

What was measured:
[1] = biological target: B2; assay: ITC
[2] = biological target: B1; assay: ITC
Smaug NTD = biological target: T1, Smaug NTD; assay: EMSA
crystal structure = biological target: the molecule itself; assay: crystal structure
[3] = biological target: B3; assay: crystal structure

Q: With B1 as the binder, how does the “stoichiometry N” value [1] read?
A: The value was 1.

Q: With B2 as the binder, how does the Kd [2] read?
A: The Kd was 800 nM.

Q: Does AGCACCGUAAAGC (ssRNA) [R13C] bind (Smaug NTD)?
A: Result: no binding

Q: Does B3 bind (crystal structure)?
A: Result: binds

Q: Does VPSYGEDELQQAMRLLNAASRQRTEAANEDFGGT [Smo 970-1003 (Smoothened part of the single-chain crystallisation construct)] bind [3]?
A: Result: binds
